From the MegaScale stability set (Tsuboyama et al. 2023)

B1: HHH_rd2_0155 (parent)
chain: PPDDERKKAEKAARSGNEEKAREILERLGYSEDEARELAKRLR

Variants of: B1
Test: folding stability dG (cDNA display proteolysis); higher = more stable
Settings: PBS, room temperature

Folding stability dG [kcal/mol]: each site, then its substitutions
I24: V 0.856, H 1.11, P 0.158, N 0.514, L 1.57, A 0.975, D 0.375, E 0.689
D3: Y 1.93, G 1.98, W 2.1, M 2.02, P 1.89, A 1.91, K 1.73, F 1.79, C 2.41, V 1.85, H 1.9, L 2.06
A9: V 1.29, T 1.05, P 1.13, I 1.25, G 1.13, E 1.03, K 0.809, D 0.819, S 1.02, C 1.45
Y30: P 0.57, H 1.13, D 0.243, L 1.79
R27: P 0.534, W 1.44, A 2.07, H 1.6, I 1.28, V 1.01, M 1.7, S 1.94, K 2.14, T 1.47, G 1.89
R36: N 1.14, I 1.57, D 0.859, M 1.57, G 0.823, S 1.27, Q 1.34, A 1.56, V 1.26, Y 1.64, T 1.31
K40: M 2.22, G 1.44, E 1.76, I 1.61, Y 1.98, L 1.81
E10: Q 1.93, P 1.05, F 2.16, G 1.58, N 1.29, Y 2.44, V 2.23, I 2.4, S 1.66
E23: K 2.12, D 1.54, W 1.83, M 2.03, H 1.85, A 2.06, L 2.19, N 1.52
A13: P 0.95, Y 1.35, L 1.54, N 0.717, M 1.35, F 1.5, T 1.15, G 1.07, V 1.19
A35: I 1.42, T 0.991, N 0.635, F 0.989, H 0.728, K 0.591, M 1.02, Y 0.905, G 0.605, W 1, L 1.02
G29: A 0.3, K 0.226, W 0.361, Q 0.091, D 0.445, E 0.491, I 0.244
R6: S 1.3, F 3.38, K 1.75, N 1.17, H 2.1, M 3.24, E 1.54, V 2.27, T 1.54, L 3
K8: R 2.15, T 1.81, G 1.36, P 1.14, D 1.86, N 1.99, F 1.75, V 1.77, H 1.94, L 2.22
K20: D 1.33, F 1.92, N 1.21, P 0.917, A 2.1
A21: P 0.632, T 1.08, R 0.974, L 1.81, Q 0.924, V 1.27, I 1.68
L28: Q 0.844, V 0.87, S 0.685, G 0.647, Y 0.983, D 0.418
R43: T 1.5, N 1.44, L 1.87, Y 2.39, D 0.613, P 0.532, E 0.924, W 2.31, S 1.85, M 2.09, Q 1.45
E32: R 1.96, Y 1.94, I 1.88, F 1.96, M 1.78, C 1.86, A 2.33, P 2.48
S15: E 2.53, C 2.15, P 0.861, Y 1.55, R 2.05, F 1.65, D 2.23, A 2.26
G16: H 1.32, Q 1.04, N 1.23, S 1.22, D 1.24, E 0.965, P 0.825, W 1.42, L 1.54, V 0.998
L42: K 0.832, E 0.286, Q 0.824, S 0.87, A 1.2, M 2.39, Y 2.46, V 0.97
P2: F 2.35, N 2.15, G 2.04, L 2.14
K11: F 2.01, M 2.48, I 2.45, C 2.29
A12: Q 1.69, M 2.11, F 2.47, I 1.61, G 1.03, Y 2.6, N 1.04
R22: F 1.09, P 0.374, T 1.27, W 1.13, L 1.4, I 2.21, G 0.568, Q 1.41
N17: L 1.65, I 1.13, G 1.08, K 1.42, W 1.98
E18: Y 2.25, L 2.8, Q 1.5, V 2.3, T 1.8, A 1.57
D4: C 2.15, M 1.97, Y 1.93, Q 2.04
E19: N 1.81, C 2.27, M 2.22, Y 1.79, Q 2.05, H 1.7, A 2.3, W 1.94
R41: T 1.37, C 1.92, V 1.35, A 1.56, S 1.43
L25: Y 1.87, S 0.333, K -0.071, Q 0.444, M 0.884, E 0.37, P -0.039, F 2.35, T 0.034
E37: G 1.38, I 2.21, L 2.17, C 2.36, W 2.41, Y 2.17, T 1.95
S31: F 0.694, Q 1.2, W 0.564, T 2.13, I 0.504, H 1.02, G 1.44, V 0.347
E26: P -0.06, F 1.47, W 0.866, S 1.72, A 1.73
D33: G 1.59, A 2.25, F 1.77, M 1.8, N 1.79, T 1.92
E34: S 1.25, G 0.998, I 1.44, P 0.438, V 1.39, L 1.35, M 1.59, K 1.25, F 1.39
K7: Q 2.18, H 1.85, M 2.21, V 2.02, D 1.7, G 1.76, E 1.98, P 1.16, R 2.25
A39: H 0.706, G 0.397, I 2.75, T 1.21, W 1.01, Q 0.366, C 2.23
L38: K 0.756, H 0.687, A 0.925, I 2.04, N -0.062, R 0.567, W 1.49, D -0.841, Q 0.725
P1: V 2.13, I 2.12, S 2.35, K 2.14, F 2.22, L 2.24, D 2.36
R14: E 1.32, V 1.75, Q 1.89, P 0.9, Y 1.73, M 1.96, H 1.6, G 1.04, L 1.79
E5: W 2.35, H 1.5, V 1.61, R 1.66, M 2.33, I 1.51, Y 1.81, L 2.65, T 1.73
